Patent US20150196663A1

Target: rat transferrin receptor (rat) (UniProt Q99376)
Assay: cell-based or functional assay

Sequence of UniProt Q99376 (Q99376 whole entry): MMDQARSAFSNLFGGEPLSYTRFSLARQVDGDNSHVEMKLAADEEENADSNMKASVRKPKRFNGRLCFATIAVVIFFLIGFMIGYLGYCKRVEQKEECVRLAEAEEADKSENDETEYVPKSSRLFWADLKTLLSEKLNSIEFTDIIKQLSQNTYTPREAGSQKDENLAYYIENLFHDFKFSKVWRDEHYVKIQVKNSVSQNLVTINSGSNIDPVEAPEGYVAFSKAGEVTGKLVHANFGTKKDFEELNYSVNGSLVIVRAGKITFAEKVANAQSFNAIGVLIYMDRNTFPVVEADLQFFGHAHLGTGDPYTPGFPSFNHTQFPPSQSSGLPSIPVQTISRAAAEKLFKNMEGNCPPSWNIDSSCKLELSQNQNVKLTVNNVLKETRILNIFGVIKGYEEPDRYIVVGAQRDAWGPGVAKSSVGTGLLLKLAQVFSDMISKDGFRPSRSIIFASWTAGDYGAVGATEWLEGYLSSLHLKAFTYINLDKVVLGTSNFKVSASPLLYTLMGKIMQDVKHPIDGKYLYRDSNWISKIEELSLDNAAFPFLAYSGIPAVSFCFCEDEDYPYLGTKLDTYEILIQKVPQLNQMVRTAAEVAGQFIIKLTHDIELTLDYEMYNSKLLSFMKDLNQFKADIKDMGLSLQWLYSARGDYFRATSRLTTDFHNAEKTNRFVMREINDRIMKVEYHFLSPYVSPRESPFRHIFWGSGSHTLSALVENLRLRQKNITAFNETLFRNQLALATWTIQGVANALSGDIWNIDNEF

percentage of RBE4 cells exhibiting multiple internalized vesicles per cell: 92%
percentage of primary BMECs exhibiting multiple internalized vesicles per cell: 46%
Substance: OX-26, positive control antibody against the rat transferrin receptor (AbD Serotec, # MCA155G)
